Results as given in patent publication US20080027001A1, “NOGO RECEPTOR FUNCTIONAL MOTIFS, PEPTIDE MIMETICS, AND MUTATED FUNCTIONAL MOTIFS RELATED THERETO, AND METHODS OF USING THE SAME” (priority 2006, published 2008).

T1: MAG-AP (Homo sapiens, UniProt P20916)
T1 construct: human MAG; NM_002361; amino acids 1-516; made in house; NgR1 transiently transfected into COS-7 cells
T1 sequence (P20916 20-516): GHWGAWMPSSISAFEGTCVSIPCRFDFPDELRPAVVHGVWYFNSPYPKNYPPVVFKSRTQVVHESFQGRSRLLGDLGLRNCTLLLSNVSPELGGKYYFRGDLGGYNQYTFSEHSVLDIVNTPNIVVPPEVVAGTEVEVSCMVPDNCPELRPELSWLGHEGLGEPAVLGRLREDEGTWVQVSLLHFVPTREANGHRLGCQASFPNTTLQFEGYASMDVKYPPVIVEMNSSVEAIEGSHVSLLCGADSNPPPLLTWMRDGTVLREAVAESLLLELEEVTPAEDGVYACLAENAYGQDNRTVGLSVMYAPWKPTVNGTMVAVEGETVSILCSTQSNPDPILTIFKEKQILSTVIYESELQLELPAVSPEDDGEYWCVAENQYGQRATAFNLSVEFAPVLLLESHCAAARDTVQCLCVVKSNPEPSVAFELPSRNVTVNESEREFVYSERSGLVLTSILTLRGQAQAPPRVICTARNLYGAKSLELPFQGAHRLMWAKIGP


Molecular target: T1, MAG-AP
Experiment: Cell-surface NgR binding assay, MAG-AP
Conditions: mutant NgR1 in COS-7 cells; MAG-AP 10 μg/ml (FIG. 7B)
Description: COS-7 cells were cotransfected with either wild type or mutant NgR1 constructs along with a CMV-beta-galactosidase plasmid (pCMVb, BD Biosciences, San Jose, Calif.) as a transfection control. Transfection was performed in 6-well plates using Lipofectamine 2000 (Invitrogen, Carlsbad, Calif.) following the manufacturer's protocol. The next day, cells were trypsinized and seeded at 30,000 cells per well in duplicate polylysine-coated 96-well plates (BD Biosciences); one plate was used in the binding assay, and the other was used to correct for transfection efficiency by measuring beta-galactosidase activity (described below). The remaining cells were separately plated and assayed for surface expression of the NgR1 proteins by immunocytochemistry (Example 1.9) and for total NgR1 protein levels by Western blot analysis (Example 1.8). […] Binding of AP-tagged ligands was measured using the Great EscAPe SEAP Kit (BD Biosciences) following the manufacturer's recommended protocol. […] Sixty microliters of diluted CSPD® substrate (Applied Biosystems, Foster City, Calif.) was then added per well, incubated for 10 minutes at room temperature, and then read on an LMAXII luminometer (Molecular Devices). […] Beta-galactosidase activity was measured using the luminescent beta-gal detection kit II (BD Biosciences) following the manufacturer's recommended protocol. […]
Separate statistical analysis was performed for MAG-AP and Nogo-66-AP binding; a linear mixed model was fitted to the data using the receptors as the fixed effects and the experiments, replicates within each experiment, and receptor×experiment interactions as the random effects. […] Pairwise comparisons were performed between receptors in the framework of the linear mixed model, and raw p-values and Tukey-Kramer multiplicity-adjusted p-values were calculated. The corresponding 95% confidence intervals were also calculated.
(SEQ ID NO:51). […] Nogo-66-AP(C47V) concentration was determined by measuring alkaline phosphatase activity and by Western blot analysis for alkaline phosphatase. […]

reduction in binding of soluble MAG (MAG-AP) relative to wild type NgR1	Molecule
57%	EM7: human NgR1 point mutant K277D/R279D (protein) CPGACVCYNEPKVTTSCPQQGLQAVPVGIPAASQRIFLHGNRISHVPAASFRACRNLTILWLHSNVLARIDAAAFTGLALLEQLDLSDNAQLRSVDPATFHGLGRLHTLHLDRCGLQELGPGLFRGLAALQYLYLQDNALQALPDDTFRDLGNLTHLFLHGNRISSVPERAFRGLHSLDRLLLHQNRVAHVHPHAFRDLGRLMTLYLFANNLSALPTEALAPLRALQYLRLNDNPWVCDCRARPLWAWLQDFDGSSSEVPCSLPQRLAGRDLKRLAANDLQGCAVATGPYHPIWTGRATDEEPLGLPKCCQPDAADKASVLEPGRPASAGNALKGRVPPGDSPPGNGSGPRHINDSPFGTLPGSAEPPLTAVRPEGSEPPGFPTSGPRRRPGCSRKNRTRSHCRLGQAGSGGGGTGDSEGS
58%	EM8: human NgR1 point mutant K277A, R279A (protein) CPGACVCYNEPKVTTSCPQQGLQAVPVGIPAASQRIFLHGNRISHVPAASFRACRNLTILWLHSNVLARIDAAAFTGLALLEQLDLSDNAQLRSVDPATFHGLGRLHTLHLDRCGLQELGPGLFRGLAALQYLYLQDNALQALPDDTFRDLGNLTHLFLHGNRISSVPERAFRGLHSLDRLLLHQNRVAHVHPHAFRDLGRLMTLYLFANNLSALPTEALAPLRALQYLRLNDNPWVCDCRARPLWAWLQAFAGSSSEVPCSLPQRLAGRDLKRLAANDLQGCAVATGPYHPIWTGRATDEEPLGLPKCCQPDAADKASVLEPGRPASAGNALKGRVPPGDSPPGNGSGPRHINDSPFGTLPGSAEPPLTAVRPEGSEPPGFPTSGPRRRPGCSRKNRTRSHCRLGQAGSGGGGTGDSEGS
36%	EM11: human NgR1 point mutant R279A (protein) CPGACVCYNEPKVTTSCPQQGLQAVPVGIPAASQRIFLHGNRISHVPAASFRACRNLTILWLHSNVLARIDAAAFTGLALLEQLDLSDNAQLRSVDPATFHGLGRLHTLHLDRCGLQELGPGLFRGLAALQYLYLQDNALQALPDDTFRDLGNLTHLFLHGNRISSVPERAFRGLHSLDRLLLHQNRVAHVHPHAFRDLGRLMTLYLFANNLSALPTEALAPLRALQYLRLNDNPWVCDCRARPLWAWLQKFAGSSSEVPCSLPQRLAGRDLKRLAANDLQGCAVATGPYHPIWTGRATDEEPLGLPKCCQPDAADKASVLEPGRPASAGNALKGRVPPGDSPPGNGSGPRHINDSPFGTLPGSAEPPLTAVRPEGSEPPGFPTSGPRRRPGCSRKNRTRSHCRLGQAGSGGGGTGDSEGS
